# T1: HDMX NTD (the region from 1st to 132nd amino acids of NP_001191100.1) (Homo sapiens, UniProt O15151)
# T1 construct: the region from 1st to 132nd amino acids of NP_001191100.1
# T1 sequence (O15151 1-132 isoform O15151-5): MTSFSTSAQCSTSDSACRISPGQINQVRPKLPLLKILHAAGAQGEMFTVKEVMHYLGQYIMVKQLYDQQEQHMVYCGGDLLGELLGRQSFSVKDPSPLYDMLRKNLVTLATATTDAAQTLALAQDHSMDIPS
# B1: M25: modified three-helix bundle protein, a3D variant, SEQ ID NO: 16 (protein)
# chain: MGSWFEFAWRLLEIKTRLQALGGSEAELAAFEKEIAAFESELQAYKGKGNPEVEALRFEAYWIRLELQAYRHN
# modifications: Synthetic M25
# B2: M11: modified three-helix bundle protein, a3D variant, SEQ ID NO: 7 (protein)
# chain: MGSWAEFSQRLFAIYWRLLALGGSEAELAAFEKEIAAFESELQAYKGKGNPEVEALRKEAAAIRDELQAYRHN
# modifications: Synthetic M11
# Assays:
# [1] = related art statement; cited from earlier work
# [2] = system: SJSA-1 (p53+/+) osteosarcoma cell line; assay: Cell cycle arrest in SJSA-1 cells (EdU / Hoescht 33342 imaging); assay type: cell-based; details: 10 uM, 24 hours, compared to control (Mock), FIG. 7
# Procedure: In this example, it was examined if the modified three-helix bundle proteins prepared in Example 3 can induce G1 and G2/M phase cell cycle arrest in SJSA-1 (p53+/+; ATCC), which is an osteosarcoma cell line expressing wild-type p53.
# In particular, SJSA1 cells were treated with the modified three-helix bundle protein M11 or M25 at the concentration of 10 uM for 24 hours, and stained with EdU (Edu staining kit, Life Technology Inc.) and Hoescht 33342 (Life Technology Inc.). Among the cells, at least 1000 cells were analyzed by imaging with incell analyzer 6000 (Ge Healthcare) and incell communicator (GE Healthcare). For comparison, the same experiment using Nutlin 3a (Sigma) at the concentration of 10 uM was performed as a positive control.
# The imaging results were analyzed by measuring the intensities of EdU (S phase indicator) and Hoescht33342 (DNA content indicator) at single cell level, and determining each population by measuring intensity of Hoescht33342 (DNA content indicator) and EdU (S phase indicator) at single cell level, thereby measuring ratio of cells at each cell cycle phase. The obtained population of each cell cycle phase was shown in FIG. 6, and the S phase measured by EdU uptake amount (EdU intensity) was shown in FIG. 7. […] G2/M is considered as a course progressing to G1 phase.
# [3] = biological target: T2, full-length HDM2 (NP 002383.2) (Homo sapiens, UniProt Q00987); assay: ELISA binding strength to full-length HDM2; details: absorbance at 450 nm, GST-fused protein 0-5.5 uM, versus GST only (negative control) and GST-p53LZ2 (positive control), FIG. 4
# T2 construct: full-length HDM2 (NP 002383.2)
# Procedure: (§1) The binding strength of the modified three-helix bundle proteins prepared in Example 1 was examined by ELISA.
# (§2) In particular, each of full-length HDM2 (NP 002383.2), HDM2 N-terminal domain (NTD; the region from 1st to 125th amino acids of NP 002383.2), full-length HDMX (NP_001191100.1), and HDMX NTD (the region from 1st to 132nd amino acids of NP_001191100.1) was diluted to the concentration of 20 μg/ml with coating buffer (pH 9.6; 0.05M carbonate-bicarbonate buffer, pH9.6; Sigma-Aldrich), and coated on 96 well (Nunc, Maxisorp). The well was incubated overnight at 4° C. Thereafter, bindings between other proteins were blocked with 300 ul of 3% skim milk w/PBS-T (at room temperature for 3 hours). The 96 well plate was washed with 200 uL of PBS-T and treated with GST-M11 (SEQ ID NO: 7) or GST-M25 (SEQ ID NO: 16) at a concentration of 0, 0.5, 1, 1.5, 2, 2.5, 3, 3.5, 4, 4.5, 5, or 5.5 uM (micromole). The GST protein was produced from GST cds included in pGEX-4T3 vector purchased from GE healthcare.
# (§3) One hour after, the plate was washed with 300 uL of PBS-T, and treated with 100 uL of HRP conjugated-anti-GST antibody (Abcam, 1:2000). […] Thereafter, absorbance at 450 nm was measured using microwell reader (Molecular Device, 340PC384). […]
# [4] = system: SJSA-1 (p53+/+) osteosarcoma cell line; assay: Cancer cell proliferation inhibition in SJSA-1 cells (CellTiter-Glo cell viability); assay type: cell-based; details: 5 days, TAT-coupled protein, FIG. 8; for cancer cell death rate: 10.00 uM
# Procedure: The effects of the modified three-helix bundle proteins prepared in Example 1 to inhibit cancer cell proliferation was examined in SJSA-1 (p53+/+; ATCC), which is an osteosarcoma cell line expressing wild-type p53.
# The cells were cultured in CO2 incubator under the conditions of 37° C., and CO2 5%, for 5 days. 80 uL of CellTiter-Glo reagent (Promega) was added to each well, and luminescence was measured with EnVision Multilabel Reader (PerkinElmer), to measure cell viability. The cell viability is indicated by a relative value to that of non-treated cells (“1.0”).
# [5] = biological target: T1, HDMX NTD (the region from 1st to 132nd amino acids of NP_001191100.1); assay: ELISA binding strength to HDMX NTD; details: absorbance at 450 nm, GST-fused protein 0-5.5 uM, versus GST only (negative control) and GST-p53LZ2 (positive control), FIG. 3
# Procedure: as §1, §2, §3
# [6] = biological target: T3, HDM2 N-terminal domain (NTD; the region from 1st to 125th amino acids of NP 002383.2) (Homo sapiens, UniProt Q00987); assay: ELISA binding strength to HDM2 NTD; details: absorbance at 450 nm, GST-fused protein 0-5.5 uM, versus GST only (negative control) and GST-p53LZ2 (positive control), FIG. 5
# T3 construct: the region from 1st to 125th amino acids of NP 002383.2
# Procedure: as §1, §2, §3
# T2 sequence (Q00987 1-497 isoform Q00987-11): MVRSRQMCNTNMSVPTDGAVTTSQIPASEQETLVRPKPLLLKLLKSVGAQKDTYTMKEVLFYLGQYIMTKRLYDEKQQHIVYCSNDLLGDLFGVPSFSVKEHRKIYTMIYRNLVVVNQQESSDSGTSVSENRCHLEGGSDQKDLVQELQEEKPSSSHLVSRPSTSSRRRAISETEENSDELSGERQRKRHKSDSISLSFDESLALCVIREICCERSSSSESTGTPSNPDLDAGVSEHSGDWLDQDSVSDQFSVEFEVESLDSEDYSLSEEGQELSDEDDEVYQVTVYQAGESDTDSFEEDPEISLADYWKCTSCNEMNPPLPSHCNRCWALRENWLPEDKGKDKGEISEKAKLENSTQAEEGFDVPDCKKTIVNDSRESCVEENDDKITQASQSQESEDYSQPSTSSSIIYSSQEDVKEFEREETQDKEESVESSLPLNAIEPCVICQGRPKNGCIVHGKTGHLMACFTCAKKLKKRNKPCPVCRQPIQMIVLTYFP
# T3 sequence (Q00987 1-125 isoform Q00987-11): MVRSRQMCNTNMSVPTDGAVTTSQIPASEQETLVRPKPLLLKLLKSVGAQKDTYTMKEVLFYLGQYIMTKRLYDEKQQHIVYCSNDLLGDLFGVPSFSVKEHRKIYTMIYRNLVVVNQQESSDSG
molecule,measurement,setting,value
COc1ccc(C2=N[C@@H](c3ccc(Cl)cc3)[C@@H](c3ccc(Cl)cc3)N2C(=O)N2CCNC(=O)C2)c(OC(C)C)c1 [Nutlin-3],cytotoxicity,[1],high level of cytotoxicity
"COc1ccc(C2=N[C@@H](c3ccc(Cl)cc3)[C@@H](c3ccc(Cl)cc3)N2C(=O)N2CCNC(=O)C2)c(OC(C)C)c1 [nutlin3a, Nutlin 3a, reference compound]",level (cell number) of cells at S phase measured by EdU intensity,[2],decrease in level (cell number) of cells at S phase compared to that of control (Mock)
B1,binding strength to full-length HDM2,[3],"considerably higher than that of the negative control, and similar to or higher than that of the positive control"
same,cancer cell death rate,[4],at least 80%
same,cancer cell proliferation inhibition effect compared with positive control,[4],equal to that of Nutlin-3
same,level (cell number) of cells at S phase measured by EdU intensity,[2],decrease in level (cell number) of cells at S phase compared to that of control (Mock)
same,binding strength to HDMX NTD,[5],"considerably higher than that of the negative control, and similar to or higher than that of the positive control"
same,binding strength to HDM2 NTD,[6],"considerably higher than that of the negative control, and similar to or higher than that of the positive control"
B2,binding strength to full-length HDM2,[3],"considerably higher than that of the negative control, and similar to or higher than that of the positive control"
same,cancer cell death rate,[4],at least 90%
same,cancer cell proliferation inhibition effect compared with positive control,[4],equal to that of Nutlin-3
same,level (cell number) of cells at S phase measured by EdU intensity,[2],decrease in level (cell number) of cells at S phase compared to that of control (Mock)
same,binding strength to HDMX NTD,[5],"considerably higher than that of the negative control, and similar to or higher than that of the positive control"
same,binding strength to HDM2 NTD,[6],"considerably higher than that of the negative control, and similar to or higher than that of the positive control"

# Source: US9902758B2, “Three-helix bundle protein and use thereof” (Samsung Electronics Co., Ltd., priority 2015, dated 2018)
